Assay results from publication doi:10.1101/2021.08.02.454712.

Biological target: recombinant Heme Detoxification Protein (PfHDP) (Plasmodium falciparum) (UniProt Q8IL04)
Experiment: SPR

## recombinant C-terminal Plasmodium falciparum exportin 2 (Pfexp-2), amino acids 139-285 (domain or fragment)
  Kd: 1100 nM
